We go through two molecules from PMC6550530.

Data set [1] deals with T1, CsrA (Vibrio cholerae, UniProt Q9KUH3 1-65). The data set is described as follows: EMSA; CsrA up to 40 nM; LightShift chemiluminescent RNA EMSA kit per manufacturer, 10 ul volume; 12% nondenaturing PAGE; buffer, salt, pH and temperature not stated. Particulars: protein: recombinant; tags: N-terminal His-TEV tag removed by TEV protease; chain copies: 2; label: 5' biotin.
The target in data set [2] is T1, CsrA. Briefly: EMSA; shift seen at 1.6 nM CsrA, increasing at 8 and 40 nM; LightShift chemiluminescent RNA EMSA kit per manufacturer, 10 ul volume; 12% nondenaturing PAGE; buffer, salt, pH and temperature not stated. The conditions noted are these: protein: recombinant; tags: N-terminal His-TEV tag removed by TEV protease; chain copies: 2; label: 5' biotin.

T1 sequence (Q9KUH3 whole entry): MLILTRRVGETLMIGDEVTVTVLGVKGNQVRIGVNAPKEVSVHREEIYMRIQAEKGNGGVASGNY

B1: atpI RNA oligonucleotide (ssRNA)
RNA: AAAAUUGUAACUUUUUGCGGUGUUUUCAUUGCAAUCAGUUGAUGCCACCGUAUAAUUUUCGCCAAUUUCCCAGUCCGAAAAAGCGGUUCGAGCUGUGGUGAUUACUAGAGGUAAGAAUAC
As for B1, the binding result with CsrA [1] is “no binding”.

B2: varA RNA oligonucleotide (ssRNA)
RNA: AAGUGUGGAGAUACAAGUUUGAUUAGUGUUUUCCUUGUAGAUGAUCACGAGCUGGUUCGCACAGGGAUACGACGUAUUAUUGAAGACGUCCGUGGAAUGAAAGUAGCAGGGGAAGCUGAC
For the molecule B2, the binding result in the data set with CsrA [2] was “binds”.
